# Results taken from ChEMBL document CHEMBL2073902, “A functional study on polymorphism of the ATP-binding cassette transporter ABCG2: critical role of arginine-482 in methotrexate transport” (Biochem J, 2003).
# B1: Broad substrate specificity ATP-binding cassette transporter ABCG2 (Homo sapiens) (protein)
# chain: MSSSNVEVFIPVSQGNTNGFPATASNDLKAFTEGAVLSFHNICYRVKLKSGFLPCRKPVEKEILSNINGIMKPGLNAILGPTGGGKSSLLDVLAARKDPSGLSGDVLINGAPRPANFKCNSGYVVQDDVVMGTLTVRENLQFSAALRLATTMTNHEKNERINRVIQELGLDKVADSKVGTQFIRGVSGGERKRTSIGMELITDPSILFLDEPTTGLDSSTANAVLLLLKRMSKQGRTIIFSIHQPRYSIFKLFDSLTLLASGRLMFHGPAQEALGYFESAGYHCEAYNNPADFFLDIINGDSTAVALNREEDFKATEIIEPSKQDKPLIEKLAEIYVNSSFYKETKAELHQLSGGEKKKKITVFKEISYTTSFCHQLRWVSKRSFKNLLGNPQASIAQIIVTVVLGLVIGAIYFGLKNDSTGIQNRAGVLFFLTTNQCFSSVSAVELFVVEKKLFIHEYISGYYRVSSYFLGKLLSDLLPMRMLPSIIFTCIVYFMLGLKPKADAFFVMMFTLMMVAYSASSMALAIAAGQSVVSVATLLMTICFVFMMIFSGLLVNLTTIASWLSWLQYFSIPRYGFTALQHNEFLGQNFCPGLNATGNNPCNYATCTGEEYLVKQGIDLSPWGLWKNHVALACMIVIFLTIAYLKLLFLKKYS
# Substrate: CN(Cc1cnc2nc(N)nc(N)c2n1)c1ccc(C(=O)N[C@@H](CCC(=O)O)C(=O)O)cc1
# Experiment: TP_TRANSPORTER: uptake (vesicle) in membrane vesicle from ABCG2-expressing HEK-293 cells
# Assay type: functional, cell membranes, HEK293
protein,measurement,value
B1,Km,5.7 mM
